This passage reports Kd results from US20210395394A1.

The chains are these.
B1: WT 1-6 (antibody, mouse IgG2b, kappa, V domains shown)
VH: QVQLQQPGAELVRPGASVKLSCKASGTSFTNYFMNWVKQRPGQGLEWIGMINPSDSETRLNQKFKDKATLTVDKSSSTAYMQLSSLTAEDSAVYYCARSGDFYTYYWDYWGQGTTLTVSS
VL: DIQLTQSPASLSASVGETVTITCRGSGNIHNYIAWYQQKQGKSPQLLVYNAKTVADGVPSRFSGSGSGTQYSLKINSLQPEDFGSYYCQSFWSSYTFGGGTKLEIKR
B2: Mutation 1-7 (antibody, mouse IgG2b, kappa, V domains shown)
VH: QVQLQQPGAELVRPGASVKLSCKASGSSFTNYWMNWVKQRPGQGLEWIGMIHPSDSETRLNQKFKDKATLTVDKSSSTAYMQLSSLTAEDSAVYYCARSGDFYTYYFDYWGQGTTLTVSS
VL: DIQLTQSPASLSASVGETVTITCRGSGNIHNYLAWYQQKQGKSPQLLVYNAKTVADGVPSRFSGSGSGTQYSLKINSLQPEDFGSYYCQSFWSTYTFGGGTKLEIKR
B3: Mutation 1-9 (antibody, mouse IgG2b, kappa, V domains shown)
VH: QVQLQQPGAELVRPGASVKLSCKASGSSFTNYWMNWVKQRPGQGLEWIGMIHPSESETRINQKFKDKATLTVDKSSSTAYMQLSSLTAEDSAVYYCARSGEFYTSYFDYWGQGTTLTVSS
VL: DIQLTQSPASLSASVGETVTITCRGSGNVHNYLAWYQQKQGKSPQLLVYNARTLADGVPSRFSGSGSGTQYSLKINSLQPEDFGSYYCQSFWSTYTFGGGTKLEIKR
B4: Mutation 1-13 (antibody, mouse IgG2b, kappa, V domains shown)
VH: QVQLQQPGAELVRPGASVKLSCKASGTSFTNYWMNWVKQRPGQGLEWIGMIHPSDSETRLNQKFKDKATLTVDKSSSTAYMQLSSLTAEDSAVYYCAKSGDFYTYYFDYWGQGTTLTVSS
VL: DIQLTQSPASLSASVGETVTITCRGTGNLHNYLAWYQQKQGKSPQLLVYNAKTLADGVPSRFSGSGSGTQYSLKINSLQPEDFGSYYCQTFWSTYTFGGGTKLEIKR
B5: Mutation 1-8 (antibody, mouse IgG2b, kappa, V domains shown)
VH: QVQLQQPGAELVRPGASVKLSCKASGYSFTNYWMNWVKQRPGQGLEWIGMIHPSDSETRVNQKFKDKATLTVDKSSSTAYMQLSSLTAEDSAVYYCARSGDFYTTYFDYWGQGTTLTVSS
VL: DIQLTQSPASLSASVGETVTITCRGTGNVHNYLAWYQQKQGKSPQLLVYNAKTIADGVPSRFSGSGSGTQYSLKINSLQPEDFGSYYCQYFWSTYTFGGGTKLEIKR
B6: Mutation 1-5 (antibody, mouse IgG2b, kappa, V domains shown)
VH: QVQLQQPGAELVRPGASVKLSCKASGSSFTNYWMNWVKQRPGQGLEWIGMIHPSDSETRVNQKFKDKATLTVDKSSSTAYMQLSSLTAEDSAVYYCAKSGEFYTTYFDYWGQGTTLTVSS
VL: DIQLTQSPASLSASVGETVTITCRGTGNIHNYLAWYQQKQGKSPQLLVYNAKTLADGVPSRFSGSGSGTQYSLKINSLQPEDFGSYYCQSFWSTYTFGGGTKLEIKR
B7: Mutation 1-1 (antibody, mouse IgG2b, kappa, V domains shown)
VH: QVQLQQPGAELVRPGASVKLSCKASGYSFTNYWMNWVKQRPGQGLEWIGMIHPSESETRLNQKFKDKATLTVDKSSSTAYMQLSSLTAEDSAVYYCAKSGDFYTYYFDYWGQGTTLTVSS
VL: DIQLTQSPASLSASVGETVTITCRGTGNLHNYLAWYQQKQGKSPQLLVYNARTVADGVPSRFSGSGSGTQYSLKINSLQPEDFGSYYCQYFWSTYTFGGGTKLEIKR
B8: WT 1-7 (antibody, mouse IgG2b, kappa, V domains shown)
VH: QVQLQQPGAELVRPGASVKLSCKASGSSFTNYFMNWVKQRPGQGLEWIGMINPSDSETRVNQKFKDKATLTVDKSSSTAYMQLSSLTAEDSAVYYCARSGEFYTSYWDYWGQGTTLTVSS
VL: DIQLTQSPASLSASVGETVTITCRGTGNVHNYIAWYQQKQGKSPQLLVYNAKTLADGVPSRFSGSGSGTQYSLKINSLQPEDFGSYYCQYFWSSYTFGGGTKLEIKR
B9: Mutation 1-4 (antibody, mouse IgG2b, kappa, V domains shown)
VH: QVQLQQPGAELVRPGASVKLSCKASGYSFTNYWMNWVKQRPGQGLEWIGMIHPSDSETRLNQKFKDKATLTVDKSSSTAYMQLSSLTAEDSAVYYCAKSGEFYTYYFDYWGQGTTLTVSS
VL: DIQLTQSPASLSASVGETVTITCRGSGNIHNYLAWYQQKQGKSPQLLVYNAKTVADGVPSRFSGSGSGTQYSLKINSLQPEDFGSYYCQTFWSTYTFGGGTKLEIKR
B10: WT 1-8 (antibody, mouse IgG2b, kappa, V domains shown)
VH: QVQLQQPGAELVRPGASVKLSCKASGTSFTNYFMNWVKQRPGQGLEWIGMINPSDSETRVNQKFKDKATLTVDKSSSTAYMQLSSLTAEDSAVYYCAKSGEFYTSYWDYWGQGTTLTVSS
VL: DIQLTQSPASLSASVGETVTITCRGSGNVHNYIAWYQQKQGKSPQLLVYNAKTIADGVPSRFSGSGSGTQYSLKINSLQPEDFGSYYCQSFWSSYTFGGGTKLEIKR
B11: Mutation 1-17 (antibody, mouse IgG2b, kappa, V domains shown)
VH: QVQLQQPGAELVRPGASVKLSCKASGTSFTNYWMNWVKQRPGQGLEWIGMIHPSESETRVNQKFKDKATLTVDKSSSTAYMQLSSLTAEDSAVYYCAKSGEFYTTYFDYWGQGTTLTVSS
VL: DIQLTQSPASLSASVGETVTITCRGTGNIHNYLAWYQQKQGKSPQLLVYNARTVADGVPSRFSGSGSGTQYSLKINSLQPEDFGSYYCQTFWSTYTFGGGTKLEIKR
B12: Mutation 1-10 (antibody, mouse IgG2b, kappa, V domains shown)
VH: QVQLQQPGAELVRPGASVKLSCKASGTSFTNYWMNWVKQRPGQGLEWIGMIHPSESETRLNQKFKDKATLTVDKSSSTAYMQLSSLTAEDSAVYYCARSGEFYTYYFDYWGQGTTLTVSS
VL: DIQLTQSPASLSASVGETVTITCRGTGNLHNYLAWYQQKQGKSPQLLVYNARTVADGVPSRFSGSGSGTQYSLKINSLQPEDFGSYYCQYFWSTYTFGGGTKLEIKR
B13: Mutation 1-3 (antibody, mouse IgG2b, kappa, V domains shown)
VH: QVQLQQPGAELVRPGASVKLSCKASGTSFTNYWMNWVKQRPGQGLEWIGMIHPSDSETRINQKFKDKATLTVDKSSSTAYMQLSSLTAEDSAVYYCAKSGEFYTSYFDYWGQGTTLTVSS
VL: DIQLTQSPASLSASVGETVTITCRGTGNVHNYLAWYQQKQGKSPQLLVYNAKTIADGVPSRFSGSGSGTQYSLKINSLQPEDFGSYYCQYFWSTYTFGGGTKLEIKR
B14: Mutation 1-2 (antibody, mouse IgG2b, kappa, V domains shown)
VH: QVQLQQPGAELVRPGASVKLSCKASGTSFTNYWMNWVKQRPGQGLEWIGMIHPSESETRVNQKFKDKATLTVDKSSSTAYMQLSSLTAEDSAVYYCAKSGDFYTTYFDYWGQGTTLTVSS
VL: DIQLTQSPASLSASVGETVTITCRGSGNVHNYLAWYQQKQGKSPQLLVYNARTLADGVPSRFSGSGSGTQYSLKINSLQPEDFGSYYCQTFWSTYTFGGGTKLEIKR
B15: Mutation 1-14 (antibody, mouse IgG2b, kappa, V domains shown)
VH: QVQLQQPGAELVRPGASVKLSCKASGSSFTNYWMNWVKQRPGQGLEWIGMIHPSDSETRVNQKFKDKATLTVDKSSSTAYMQLSSLTAEDSAVYYCAKSGDFYTTYFDYWGQGTTLTVSS
VL: DIQLTQSPASLSASVGETVTITCRGSGNVHNYLAWYQQKQGKSPQLLVYNAKTIADGVPSRFSGSGSGTQYSLKINSLQPEDFGSYYCQSFWSTYTFGGGTKLEIKR
B16: Mutation 1-6 (antibody, mouse IgG2b, kappa, V domains shown)
VH: QVQLQQPGAELVRPGASVKLSCKASGTSFTNYWMNWVKQRPGQGLEWIGMIHPSDSETRINQKFKDKATLTVDKSSSTAYMQLSSLTAEDSAVYYCARSGDFYTSYFDYWGQGTTLTVSS
VL: DIQLTQSPASLSASVGETVTITCRGTGNIHNYLAWYQQKQGKSPQLLVYNAKTLADGVPSRFSGSGSGTQYSLKINSLQPEDFGSYYCQTFWSTYTFGGGTKLEIKR
B17: Mutation 1-12 (antibody, mouse IgG2b, kappa, V domains shown)
VH: QVQLQQPGAELVRPGASVKLSCKASGYSFTNYWMNWVKQRPGQGLEWIGMIHPSDSETRINQKFKDKATLTVDKSSSTAYMQLSSLTAEDSAVYYCAKSGDFYTSYFDYWGQGTTLTVSS
VL: DIQLTQSPASLSASVGETVTITCRGSGNLHNYLAWYQQKQGKSPQLLVYNAKTVADGVPSRFSGSGSGTQYSLKINSLQPEDFGSYYCQYFWSTYTFGGGTKLEIKR
B18: Mutation 1-16 (antibody, mouse IgG2b, kappa, V domains shown)
VH: QVQLQQPGAELVRPGASVKLSCKASGYSFTNYWMNWVKQRPGQGLEWIGMIHPSESETRLNQKFKDKATLTVDKSSSTAYMQLSSLTAEDSAVYYCAKSGEFYTYYFDYWGQGTTLTVSS
VL: DIQLTQSPASLSASVGETVTITCRGSGNIHNYLAWYQQKQGKSPQLLVYNARTLADGVPSRFSGSGSGTQYSLKINSLQPEDFGSYYCQSFWSTYTFGGGTKLEIKR
B19: WT 1-9 (antibody, mouse IgG2b, kappa, V domains shown)
VH: QVQLQQPGAELVRPGASVKLSCKASGSSFTNYFMNWVKQRPGQGLEWIGMINPSESETRINQKFKDKATLTVDKSSSTAYMQLSSLTAEDSAVYYCAKSGEFYTYYWDYWGQGTTLTVSS
VL: DIQLTQSPASLSASVGETVTITCRGTGNVHNYIAWYQQKQGKSPQLLVYNARTLADGVPSRFSGSGSGTQYSLKINSLQPEDFGSYYCQTFWSSYTFGGGTKLEIKR
B20: Mutation 1-15 (antibody, mouse IgG2b, kappa, V domains shown)
VH: QVQLQQPGAELVRPGASVKLSCKASGSSFTNYWMNWVKQRPGQGLEWIGMIHPSESETRINQKFKDKATLTVDKSSSTAYMQLSSLTAEDSAVYYCAKSGEFYTSYFDYWGQGTTLTVSS
VL: DIQLTQSPASLSASVGETVTITCRGTGNVHNYLAWYQQKQGKSPQLLVYNARTVADGVPSRFSGSGSGTQYSLKINSLQPEDFGSYYCQTFWSTYTFGGGTKLEIKR
B21: Mutation 1-11 (antibody, mouse IgG2b, kappa, V domains shown)
VH: QVQLQQPGAELVRPGASVKLSCKASGYSFTNYWMNWVKQRPGQGLEWIGMIHPSESETRVNQKFKDKATLTVDKSSSTAYMQLSSLTAEDSAVYYCARSGEFYTTYFDYWGQGTTLTVSS
VL: DIQLTQSPASLSASVGETVTITCRGSGNLHNYLAWYQQKQGKSPQLLVYNARTIADGVPSRFSGSGSGTQYSLKINSLQPEDFGSYYCQTFWSTYTFGGGTKLEIKR

The assay addresses Pan-species-specific antigen Plasmodium Lactate DeHydrogenase (Pan-PLDH) protein. Nature of the assay: indirect ELISA at four coating concentrations, KD calculated from half-maximal OD.
In the case of B1, the Kd – broadly, a measure of binding affinity in units of concentration – was 1.56 nM.

As to B2, the Kd was 0.208 nM.

Consider B3, for which the Kd was 0.616 nM.

On to B4, for which the Kd is 0.531 nM.

Regarding B5, the Kd is 0.481 nM.

As for B6, the Kd was 0.532 nM.

Regarding B7, the Kd is 0.521 nM.

Regarding B8, the Kd is 0.757 nM.

Take B9: the Kd was 0.596 nM.

As to B10, the Kd was 1.36 nM.

As to B11, the Kd is 0.37 nM.

As for B12, the Kd was 0.525 nM.

Take B13: the Kd was 0.098 nM.

Turning to B14, the Kd was 0.338 nM.

For B15, the Kd was 0.488 nM.

Take B16: the Kd is 0.664 nM.

Turning to B17, the Kd is 0.118 nM.

For the molecule B18, the Kd was 0.411 nM.

In the case of B19, the Kd was 0.621 nM.

B20: the Kd is 0.47 nM.

With B21, the Kd was 0.465 nM.
